According to patent US20190016825A1:

Columns and labels:
biotin-PCSK9-his [1] = target: biotin-PCSK9-his (UniProt Q8NBP7); assay: competitive ELISA, one antibody coated, biotin-PCSK9-his plus 50-fold competitor; competitor: h001-4
biotin-PCSK9-his [2] = target: biotin-PCSK9-his (UniProt Q8NBP7); assay: competitive ELISA, one antibody coated, biotin-PCSK9-his plus 50-fold competitor; competitor: 21B12

IR (%) (biotin-PCSK9-his [1]): 3.86% | IR (%) (biotin-PCSK9-his [2]): 97.8%
Substance: 21B12 (U.S. Pat. No. 8,030,457B2) (antibody)
